Measurements as given in paper PMC10913813 (The Journal of Cell Biology, 2024).

Biological target: T1, 6xHis-SUMO-Gin4 (S. cerevisiae, UniProt Q12263 1-1142)
T1 sequence (looked up): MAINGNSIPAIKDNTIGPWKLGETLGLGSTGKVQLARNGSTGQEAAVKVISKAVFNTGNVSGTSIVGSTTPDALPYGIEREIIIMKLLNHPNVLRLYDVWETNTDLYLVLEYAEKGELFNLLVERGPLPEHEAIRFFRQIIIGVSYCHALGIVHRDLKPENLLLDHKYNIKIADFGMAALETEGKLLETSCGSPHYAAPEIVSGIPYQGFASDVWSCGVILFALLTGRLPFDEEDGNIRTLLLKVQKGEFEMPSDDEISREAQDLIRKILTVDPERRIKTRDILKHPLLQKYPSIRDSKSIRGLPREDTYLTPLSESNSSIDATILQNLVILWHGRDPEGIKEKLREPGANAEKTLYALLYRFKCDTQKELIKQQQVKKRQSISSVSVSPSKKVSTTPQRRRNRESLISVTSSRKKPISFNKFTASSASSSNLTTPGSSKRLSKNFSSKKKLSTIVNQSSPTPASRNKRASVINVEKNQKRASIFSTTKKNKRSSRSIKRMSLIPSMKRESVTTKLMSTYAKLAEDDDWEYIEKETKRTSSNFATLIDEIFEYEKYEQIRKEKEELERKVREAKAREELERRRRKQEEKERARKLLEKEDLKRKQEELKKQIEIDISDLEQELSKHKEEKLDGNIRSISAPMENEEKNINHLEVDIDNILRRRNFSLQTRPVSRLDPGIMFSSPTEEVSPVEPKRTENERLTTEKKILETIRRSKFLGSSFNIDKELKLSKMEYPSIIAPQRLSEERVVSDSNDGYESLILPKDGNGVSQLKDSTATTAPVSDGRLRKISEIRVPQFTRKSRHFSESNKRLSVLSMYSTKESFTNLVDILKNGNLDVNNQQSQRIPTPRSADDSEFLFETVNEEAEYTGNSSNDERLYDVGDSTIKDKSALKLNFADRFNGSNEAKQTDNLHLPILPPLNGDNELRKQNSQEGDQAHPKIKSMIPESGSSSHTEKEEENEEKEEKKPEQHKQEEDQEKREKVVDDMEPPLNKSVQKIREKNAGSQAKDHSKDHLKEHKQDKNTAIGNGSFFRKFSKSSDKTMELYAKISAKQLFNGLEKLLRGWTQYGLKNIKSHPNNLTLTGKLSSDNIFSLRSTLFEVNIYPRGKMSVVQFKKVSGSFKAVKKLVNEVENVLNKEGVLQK
Experiment: pull-down

binding result: binds
B1: GST-Elm1^WT (enzyme, S. cerevisiae, UniProt P32801 1-640, looked up)
chain: MSPRQLIPTLIPEWAPLSQQSCIREDELDSPPITPTSQTSSFGSSFSQQKPTYSTIIGENIHTILDEIRPYVKKITVSDQDKKTINQYTLGVSAGSGQFGYVRKAYSSTLGKVVAVKIIPKKPWNAQQYSVNQVMRQIQLWKSKGKITTNMSGNEAMRLMNIEKCRWEIFAASRLRNNVHIVRLIECLDSPFSESIWIVTNWCSLGELQWKRDDDEDILPQWKKIVISNCSVSTFAKKILEDMTKGLEYLHSQGCIHRDIKPSNILLDEEEKVAKLSDFGSCIFTPQSLPFSDANFEDCFQRELNKIVGTPAFIAPELCHLGNSKRDFVTDGFKLDIWSLGVTLYCLLYNELPFFGENEFETYHKIIEVSLSSKINGNTLNDLVIKRLLEKDVTLRISIQDLVKVLSRDQPIDSRNHSQISSSSVNPVRNEGPVRRFFGRLLTKKGKKKTSGKGKDKVLVSATSKVTPSIHIDEEPDKECFSTTVLRSSPDSSDYCSSLGEEAIQVTDFLDTFCRSNESLPNLTVNNDKQNSDMKTDRSESSSHSSLKIPTPIKAMIRLKSSPKENGNRTHINCSQDKPSSPLMDRTVGKRTVNNSGARKLAHSSNILNFKAYINSEDSDIRETVEDVKTYLNFADNGQI
